Where no end group is shown, it is not given here.
Molecular target: BSA (UniProt P02769 25-607)
Assay: photocrosslinking with TAMRA-tagged adapter, reducing SDS-PAGE, fluorescence image

B1: LASIC Protein G adapter with C-terminal STEPL peptide (TAMRA; TAMRA-DBCO; FAM-Azide; Biotin), BPA position not stated (designed binder)
chain: MTFKLIINGKTLKGEITIEAVDAAEAEKIFKQYANDYGIDGEWTYDDATKTFTVTE
modifications: also: BPA at unstated position, C-terminal Gly-Gly-Gly peptide carrying label (TAMRA, TAMRA-DBCO, FAM-azide or biotin)
notes: also called TAMRA dye-tagged LASIC adapter; TAMRA labeled Protein G adapter protein
binding result: no binding

— patent US20220354962A1 (University of Pennsylvania, published 2022)
